The source of these data is patent US20230279079A1 (CHANG GUNG MEMORIAL HOSPITAL LINKOU, published 2023).

In assay [1] the target is spike glycoprotein of wild type SARS-CoV-2 virus (SARS-CoV-2, UniProt P0DTC2 14-1273). As to the kind of experiment: cell-based or functional assay.
The target of the next assay is T1, SARS spike S1 subunit (severe acute respiratory syndrome …, UniProt P59594 14-667).
T1 construct: domain: S1 subunit
As to the kind of experiment: ELISA. On the technique in general: An ELISA detects its analyte on a solid surface through an enzyme-linked reagent.

The target in assay [2] is T2, Human coronavirus OC43 spike extracellular domain (human coronavirus OC43, UniProt P36334 14-1297).
T2 construct: extracellular domain
Put plainly: ELISA.

Assay [3] addresses T3, SARS-CoV-2 spike S2 subunit (SARS-CoV-2, UniProt P0DTC2 686-1213).
T3 construct: domain: S2 subunit
Put plainly: ELISA.

The target of assay [4] is T4, MERS spike extracellular domain (Middle East respiratory syndrome …, UniProt K9N5Q8 18-1296).
T4 construct: extracellular domain
Put plainly: ELISA.

Assay [5] concerns the target T5, SARS-CoV-2 nucleocapsid protein (SARS-CoV-2, UniProt P0DTC9 1-419).
T5 construct: also called N protein
As to the kind of experiment: ELISA on recombinant protein.

B1: FI 1C (antibody, V domains shown)
VH: EVQLVESGGGLVKPGGSLRLSCAASGFTFSDYYMSWIRQAPGKGLEWVSYISSSGSTIYYADSVKGRFTISRDNAKNSLYLQMNSLRAEDTAVYYCARRSNRFLIAFDIWGQGTMVTVSS
VL: QSALTQPASVSGSPGQTITISCTGTSSDVGGYNYVSWYQQHPGKAPKLMIYEVSNRPSGVSNRFSGSKSGNTASLTISGLQAEDEADYYCSSYTSSSTLVVFGGGTKLTVP
For B1, the “Neutralization by FMNT EC50” value in assay [1] turned out to be 0.00224 µM. For the same molecule, the “Neutralization by PRNT EC50” value in assay [1] amounted to 0.0167 µM. For the same molecule, the binding result (with SARS spike S1 subunit; in assay [2]; in assay [3]; in assay [4]) was “no binding” throughout.

B2: EY 8A (antibody, V domains shown)
VH: EVQLVESGPGLVKPSQTLSLTCTVSGGSISSGSYYWSWIRQPAGKGLEWIGRIYTSGSTNYNPSLKSRVTISVDTSKNQFSLKLSSVTAADTAVYYCAKGHVISGYDDYYYYYGMDVWGQGTTVTVSS
VL: not shown
With B2, in assay [5], the binding result is reported as “binds”.

B3: FD 4C (antibody, V domains shown)
VH: EVQLVESGPGLVKPSQTLSLTCTVSGGSISSGGYYWSWIRQHPGKGLEWIGYIYYSGSTYYNPSLKSRVTISVDTSKNQFSLKLSSVTAADTAVYYCARVRSSSSWYFDYWGQGTLVTVSS
VL: QSVLTQPASVSGSPGQSITISCTGTSSDVGGYNYVSWYQQHPGKAPKLMIYDVSKRPSGVSNRFSGSKSGNTASLTISGLQAEDEADYYCSSYTSKWVFGGGTKLTVL
With B3, the binding result in assay [5] was “binds”.

B4: EZ 7B (antibody, V domains shown)
VH: EVQLVESSPGLVKPSETLSLTCTVSGGSISSYYWSWIRQPPGKGLEWIGYIYYSGSTNYNPSLKSRVTISVDTSKNQFSLKLSSVTAADTAVYYCARRVFGPVLPSKLGGSYWGGGAFDIWGQGTMVTVSS
VL: not shown
With B4, the binding result in assay [5] was “binds”.

B5: EY 5A (antibody, V domains shown)
VH: EVQLVESGPGLVKPSGTLFLTCTVSGGSISNYYWSWIRQPPGKALEWIGFIYSNGNTDYNPSLQSRVTISGDTSKNQFSLNLRSVTAADTAVYYCARGPGPATGGSLDYWGQGTMVTVSS
VL: not shown
In the case of B5, the binding result in assay [5] was “binds”.

B6: EZ 4A (antibody, V domains shown)
VH: EVQLVQSGAEVKKPGESLKISCKGSGYSFTSYWIGWVRQMPGKGLEWMGIIYPGDSDTRYSPSFQGQVTISADKSISTAYLQWSSLKASDTAMYYCARSPIAADLFDYWGQGTLVTVSS
VL: not shown
On to B6, for which the binding result in assay [5] is reported as “binds”.

B7: EZ 4C kappa (antibody, V domains shown)
VH: EVQLVESGPGLVKPSETLSLTCTVSGGSVSSGNNYWSWIRQPPGKALEWIGYIYYSGSTKYNPSLKSRVTMSVGTSKNQFSLKVNSVTAADTAMYYCARAPSAPFGGLFDWILPKGINNWGQGTLVTVSS
VL: EIVLTQSPSTLSASVGDRVTITCRTSQSIRSWLAWYQQKPGKAPKLLIFEASTLESGVPERFSGSGSGAEFTLTISSLQPDDFATYYCQQYNGYSYSFGQGTKVEIR
notes: also called EZ 4C-1
In the case of B7, the binding result in assay [5] is “binds”.

B8: EY 6A-1 (antibody, V domains shown)
VH: EVQLVESGGGVVQPGRSLRLSCAASAFTFSSYDMHWVRQAPGKGLEWVAVISYDGSNKYYADSVKGRFTISRDNSKNTLYLQMNSLRAEDTAVYYCAKDGGKLWVYYFDYWGQGTLVTVSS
VL: not shown
B8: the “Neutralization by FMNT EC50” value in assay [1] turned out to be 0.0225 µM. Also, the “Neutralization by PRNT EC50” value in assay [1] is 0.133 µM. The binding result in the assay with SARS spike S1 subunit is “binds”; in assay [2], “no binding”; in assay [3] it was “no binding”; in assay [4] it was “no binding”.
